Each block holds one binder with its values, some of them ahead of it.
How the values were obtained:
[1] = biological target: T1, recombinant human IL-15 (Prospec cat no. CYT230) (human, UniProt P40933 49-162); test: ELISA, plate-bound human IL-15; printed as BC50 (half-maximal binding concentration)
Experimental: (§1) Maxisorp plates were coated with recombinant human IL-15 (Prospec cat no. CYT230) or Rhesus macaque IL-15 (MyBiosource cat. no. MBS948894) at 100 ng/well in carbonate coating buffer for 2 hours at 37° C. Since published sequences of Rhesus macaque and Cynomolgus monkey IL-15 are identical, such recombinant IL-15 protein was referred to as Macaque Monkey IL-15. Tested human IL-15 recombinant protein has a sequence identical to that provided in SEQ ID NO: 1 but with an additional methionine at the N-terminal position as usually done for expressing recombinant proteins in E. Coli. Tested recombinant Macaque Monkey IL-15 was produced in yeast and has a sequence identical to that provided in SEQ ID NO: 4 but with an additional N-terminal His tag.
(§2) The plate was then blocked with 2% normal goat serum for 30 min at 37° C. and washed 6 times with PBS-Tween (0.05% Tween-20 in PBS, v/v). Test antibodies were added to the plate in triplicate at various dilutions in PBS-Tween and the plate was incubated with gentle rocking at room temperature for 2 hours. The plate was then washed 6 times with PBS-Tween and an appropriate dilution of goat anti-human IgG antibody (Millipore cat. no. AP309P) conjugated to horseradish peroxidase (HRP) was added to the plate and left rocking at room temperature for 1 hour. The plate was then washed 6 times with PBS-Tween and incubated with TMB substrate. The reaction was stopped by the addition of 1M H₂SO₄ and read at 450 nm. Dose response curves of absorbance versus concentration were plotted and analyzed to determine half-maximal binding concentrations (BC₅₀) using the Graphpad Prism software. BC₅₀ values expressed as molarity were extrapolated from concentration in ng/ml using a 150 kDa molecular weight value for all antibodies.

[2] = biological target: recombinant human IL-2 (R&D Systems cat. no. 202-IL-010) (human, UniProt P60568 21-153); test: ELISA, plate-bound recombinant human IL-2 (100 ng/well), HRP goat anti-human IgG, absorbance at 450 nm
Experimental: Maxisorp plates were coated with recombinant human IL-2 (R&D Systems cat. no. 202-IL-010) of SEQ ID NO: 38 at 100 ng/well in carbonate coating buffer for 2 hours at 37° C. The plate was then blocked with 2% normal goat serum for 30 min at 37° C. and washed 4 times with PBS-Tween (0.05% Tween-20 in PBS, v/v). Test antibodies or positive control biotinylated antibody (anti-IL-2 Novus Bio cat. no. NBP1-43491) were added to the plate in duplicate at 5 μg/ml in PBS-Tween and the plate was incubated with gentle rocking at room temperature for 2 hours. The plate was then washed 4 times with PBS-Tween and an appropriate dilution of goat anti-human IgG antibody (Millipore cat. no. AP309P) conjugated to horseradish peroxidase (HRP) for test antibodies, or streptavidin-HRP for positive control antibody, was added to the plate and left rocking at room temperature for 1 hour. The plate was then washed 4 times with PBS-Tween and incubated with TMB (3,3′,5,5′-tetramethylbenzidine) substrate. The reaction was stopped by the addition of 1 M H₂SO₄ and read at 450 nm.

[3] = biological target: T2, recombinant Macaque Monkey IL-15 (MyBiosource cat. no. MBS948894) (Rhesus macaque / Cynomolgus monkey, UniProt P40221 49-162 (Chlorocebus aethiops entry)); test: ELISA, plate-bound Macaque Monkey IL-15; printed as BC50 (half-maximal binding concentration)
T2 construct: Produced in yeast; also called Rhesus macaque IL-15; recombinant monkey IL-15; not shown: additional N-terminal His tag
Experimental: as §1, §2

[4] = biological target: T3, human IL-15 (preparation not stated) (human, UniProt P40933 49-162, limits assumed); test: ELISA
T3 construct: also called recombinant IL-15; recombinant human IL-15

[5] = biological target: T1, recombinant human IL-15 (Prospec cat …); test: SPR (Biacore 3000), human IL-15 amine-coupled to the chip, antibody injected, 1:1 Langmuir fit
Experimental: Human IL-15 (Prospec cat no. CYT230) was immobilized onto a CMS chip (GE Healthcare) using standard amine coupling, and antibodies injected at various concentrations in 120 μl phosphate buffer saline with a flow rate of […]. Binding kinetics were analyzed on a Biacore 3000 apparatus (GE Healthcare) with a 300 seconds dissociation period. Reference signal and 0 nM antibody concentration signal were substracted and data fitted using a 1:1 (Langmuir) binding model.

[6] = biological target: T4, recombinant mouse IL-15 (R&D Systems cat. no. 447-ML) (mouse, UniProt P48346 49-162); test: ELISA, plate-bound recombinant mouse IL-15 (100 ng/well), HRP goat anti-human IgG, absorbance at 450 nm
T4 sequence: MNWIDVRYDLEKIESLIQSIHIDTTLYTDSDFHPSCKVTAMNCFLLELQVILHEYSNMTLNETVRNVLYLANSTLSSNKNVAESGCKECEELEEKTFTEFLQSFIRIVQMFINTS
Experimental: (§3) Maxisorp plates were coated with recombinant mouse IL-15 (R&D Systems cat. no. 447-ML) or rat IL-15 (Sigma cat. no. SRP4172) at 100 ng/well in carbonate coating buffer for 2 hours at 37° C. Tested IL-15 recombinant proteins have a sequence identical to that provided in SEQ ID NO: 2 (mouse IL-15) and SEQ ID NO: 3 (rat IL-15) but with an additional methionine at the N-terminal position as usually done for expressing recombinant proteins in E. Coli.
(§4) The plate was then blocked with 2% normal goat serum for 30 min at 37° C. and washed 6 times with PBS-Tween (0.05% Tween-20 in PBS, v/v). Test antibodies were added to the plate in triplicate at various dilutions in PBS-Tween and the plate was incubated with gentle rocking at room temperature for 2 hours. As positive controls, rabbit-anti-mouse IL-15 (Acris cat. no. AP01124PU-S) or rabbit anti-rat IL-15 (Biovision cat. no. 5172) antibodies were tested at the same concentrations. The plate was then washed 6 times with PBS-Tween and an appropriate dilution of HRP-conjugated goat anti-human IgG antibody (Millipore cat. no. AP309P) for humanized antibodies, or goat-anti-rabbit IgG antibody (Sigma cat. no. A 4416) for the positive controls was added and the plate was left rocking at room temperature for 1 hour. The plate was then washed 6 times with PBS-Tween and incubated with TMB substrate. The reaction was stopped by the addition of 1M H₂SO₄ and read at 450 nm. Dose response curves of absorbance versus concentration were plotted using the Graphpad Prism software.

[7] = biological target: T2, recombinant Macaque Monkey IL-15 …; test: cell-based or functional assay
[8] = biological target: T5, recombinant human IL-15 (R&D systems cat. no. 247-IL) (human, UniProt P40933 49-162); test: cell-based or functional assay
[9] = biological target: T6, recombinant rat IL-15 (Sigma cat. no. SRP4172) (rat, UniProt P97604 49-162); test: ELISA, plate-bound recombinant rat IL-15 (100 ng/well), HRP goat anti-human IgG, absorbance at 450 nm
T6 sequence: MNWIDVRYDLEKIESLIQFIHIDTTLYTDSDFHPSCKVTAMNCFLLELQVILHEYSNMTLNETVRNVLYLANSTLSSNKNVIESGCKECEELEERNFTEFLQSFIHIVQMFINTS
Experimental: as §3, §4

[10] = biological target: T5, recombinant human IL-15 (R&D systems …); test: cell-based or functional assay; remark: listed apart in the source

T1 sequence (P40933 other isoform, or with tags, fused parts or gaps): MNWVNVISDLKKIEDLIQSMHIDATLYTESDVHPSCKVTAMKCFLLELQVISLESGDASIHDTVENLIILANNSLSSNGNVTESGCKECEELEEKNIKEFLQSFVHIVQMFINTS
T2 sequence (P40221 49-162): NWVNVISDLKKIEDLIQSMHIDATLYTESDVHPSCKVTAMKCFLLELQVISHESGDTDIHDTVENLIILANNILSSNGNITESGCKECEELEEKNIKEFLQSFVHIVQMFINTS
T5 sequence (P40933 49-162 limits assumed): as the sequence (P40221 49-162) above, with H52L, T57A, D58S, I73S, I80V counted along it
Sequence of recombinant human IL-2 (R&D Systems cat. no. 202-IL-010) (P60568 21-153 limits assumed): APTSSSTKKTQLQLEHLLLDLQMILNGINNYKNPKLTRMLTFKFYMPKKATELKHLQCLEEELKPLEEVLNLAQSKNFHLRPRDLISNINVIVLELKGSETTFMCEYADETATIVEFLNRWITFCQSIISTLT
T3 sequence (P40933 49-162 limits assumed): as the sequence (P40221 49-162) above, with H52L, T57A, D58S, I73S, I80V counted along it

B1: huB-E29-4 (antibody, human IgG1, kappa, V domains shown)
VH: EVRLMASGGGLVQPGGSLRLSCAASEFTFSNYAMSWVRQAPGKGLEWVATISRGGDYTYYPDSVKGRFTISRDNSKNTLYLQMNSLRAEDTAVYYCARRVSMITGGWAMDYWGQGTLVTVSS
VL: DVVMTQSPLSLPVTLGQPASISCRSSQSIVDITGNTYLEWFQQRPGQSPRLLIYKVFNRFSGVPDRFSGSGSGTDFTLKISRVEAEDVGVYYCFQDSFVPYTFGQGTKLEIKR
notes: Humanized B-E29 variant; human IgG1 (G1m3) / kappa (Km3), produced in CHO cells; also called huVH1/huVL2
EC50 [1]: 1.01 nM
binding result [2]: no binding (tested: 5 µg/ml)
EC50 [3]: 0.5 nM

B2: cVH1:cVK1 (antibody, human IgG1, kappa, V domains shown)
VH: EVRLMASGGGLVKPGGSLKLSCAASEFTFSNYAMSWVRQTPEKRLEWVATISRGGDYTYYPDSVKGRFTISRDNAKNTLYLQMSSLRSEDTALYYCARRVSMITGGWAMDYWGQGTSVTVSS
VL: DVLMTQTPLSLPVSLGDQASISCRSSQSIVDITGNTYLEWYLQKPGQSPKLLIYKVFNRFSGVPDRFSGSGSGTDFTLKISRVEAEDLGLYYCFQDSFVPYTFGGGTKLEIKR
notes: Mouse B-E29 variable regions on human IgG1 (G1m3) / kappa (Km3); also called chimeric B-E29
binding result [4]: binds

B4: huB-E29-7 (antibody, human IgG1, kappa, V domains shown)
VH: EVRLMASGGGLVQPGGSLRLSCAASEFTFSNYAMSWVRQAPGKGLEWVATISRGGDYTYYPESVKGRFTISRDNSKNTLYLQMNSLRAEDTAVYYCARRVSFITGGWAMDYWGQGTLVTVSS
VL: DVVMTQSPLSLPVTLGQPASISCRSSQSIVDITGNTYLEWYQQRPGQSPRLLIYKVFNRFSGVPDRFSGSGSGTDFTLKISRVEAEDVGVYYCFQDSFVPYTFGQGTKLEIKR
notes: Humanized B-E29 variant; human IgG1 (G1m3) / kappa (Km3), produced in CHO cells; also called huVH5/huVL1
EC50 [1]: 0.84 nM
EC50 [3]: 0.433 nM

B8: huB-E29-5 (antibody, human IgG1, kappa, V domains shown)
VH: EVRLMASGGGLVQPGGSLRLSCAASEFTFSNYAMSWVRQAPGKGLEWVATISRGGDYTYYPDSVKGRFTISRDNSKNTLYLQMNSLRAEDTAVYYCARRVSMITGGWAMDYWGQGTLVTVSS
VL: DVVMTQSPLSLPVTLGQPASISCRSSQSIVDITGNTYLEWYQQRPGQSPRRLIYKVFNRFSGVPDRFSGSGSGTDFTLKISRVEAEDVGVYYCFQDSFVPYTFGQGTKLEIKR
notes: Humanized B-E29 variant; human IgG1 (G1m3) / kappa (Km3), produced in CHO cells; also called huVH1/huVL3
EC50 [1]: 1.47 nM
EC50 [3]: 0.453 nM

Continued, in another order:

EC50 [1]: 0.647 nM
Kd [5]: 0.329 nM
koff [5]: 0.000574 s⁻¹
kon [5]: 1.75e+06 M⁻¹ s⁻¹
EC50 [3]: 0.113 nM
IC50 in Kit 225 cells (nM), Macaque Monkey IL-15 [7]: 26.7 nM
IC50 in M-07e cells (nM), Macaque Monkey IL-15 [7]: 10.4 nM
IC50 in Kit 225 cells (nM), Human IL-15 [8]: 29.3 nM
IC50 in M-07e cells (nM), Human IL-15 [8]: 19.1 nM
IC50 in M07e cells for IL-15 trans presentation [10]: 0.65 nM
B3: huB-E29-24 (antibody, human IgG1, kappa, V domains shown)
VH: EVQLVESGGGLVQPGGSLRLSCAASEFTFSNYAMSWVRQAPGKGLEWVATISRGGDYTYYPDSVKGRFTISRDNSKNTLYLQMNSLRAEDTAVYYCARRVSMITGGYAMDYWGQGTLVTVSS
VL: DVVMTQSPLSLPVTLGQPASISCRSSQSIVDITGNTYLEWYQQRPGQSPRLLIYKVFNRFSGVPDRFSGSGSGTDFTLKISRVEAEDVGVYYCFQDSFVPYTFGQGTKLEIKR
notes: Humanized B-E29 variant; human IgG1 (G1m3) / kappa (Km3), produced in CHO cells; also called huVH18/huVL1
binding result [6]: no binding (tested: log 3.7 (about 5000 ng/mL))
binding result [9]: no binding (tested: log 3.7 (about 5000 ng/mL))

EC50 [1]: 0.693 nM
EC50 [3]: 0.367 nM
B5: huB-E29-18 (antibody, human IgG1, kappa, V domains shown)
VH: EVRLMASGGGLVQPGGSLRLSCAASEFTFSNYAMSWVRQAPGKGLEWVATISRGGDYTYYPDSVKGRFTISRDNSKNTLYLQMNSLRAEDTAVYYCARRVSMITGGWAMDYWGQGTLVTVSS
VL: DVVMTQSPLSLPVTLGQPASISCRSSQSIVDITGNTYLEWYQQRPGQSPRLLIYKVFNRFSGVPDRFSGSGSGTDFTLKISRVEAEDVGVYYCFQESFVPYTFGQGTKLEIKR
notes: Humanized B-E29 variant; human IgG1 (G1m3) / kappa (Km3), produced in CHO cells; also called huVH1/huVL4

EC50 [1]: 0.507 nM
Kd [5]: 0.295 nM
koff [5]: 0.000423 s⁻¹
kon [5]: 1.43e+06 M⁻¹ s⁻¹
binding result [2]: no binding (tested: 5 µg/ml)
EC50 [3]: 0.353 nM
IC50 in Kit 225 cells (nM), Macaque Monkey IL-15 [7]: 17.5 nM
IC50 in M-07e cells (nM), Macaque Monkey IL-15 [7]: 41.3 nM
IC50 in Kit 225 cells (nM), Human IL-15 [8]: 17 nM
IC50 in M-07e cells (nM), Human IL-15 [8]: 4.2 nM
IC50 in M07e cells for IL-15 trans presentation [10]: 0.53 nM
B6: huB-E29-10 (antibody, human IgG1, kappa, V domains shown)
VH: EVRLMASGGGLVQPGGSLRLSCAASEFTFSNYAMSWVRQAPGKGLEWVATISRGGDYTYYPDTVKGRFTISRDNSKNTLYLQMNSLRAEDTAVYYCARRVSMITGGYAMDYWGQGTLVTVSS
VL: DVVMTQSPLSLPVTLGQPASISCRSSQSIVDITGNTYLEWYQQRPGQSPRLLIYKVFNRFSGVPDRFSGSGSGTDFTLKISRVEAEDVGVYYCFQDSFVPYTFGQGTKLEIKR
notes: Humanized B-E29 variant; human IgG1 (G1m3) / kappa (Km3), produced in CHO cells; also called huVH8/huVL1
binding result [6]: no binding (tested: log 3.7 (about 5000 ng/mL))
binding result [9]: no binding (tested: log 3.7 (about 5000 ng/mL))

EC50 [1]: 0.813 nM
EC50 [3]: 0.347 nM
B7: huB-E29-14 (antibody, human IgG1, kappa, V domains shown)
VH: EVRLMASGGGLVQPGGSLRLSCAASEFTFSNYAMSWVRQAPGKGLEWVATISRGGDYTYYPDSVKGRFTISRDNSKNTLYLQMNSLRAEDTAVYYCARRVSMITGGWAFDYWGQGTLVTVSS
VL: DVVMTQSPLSLPVTLGQPASISCRSSQSIVDITGNTYLEWYQQRPGQSPRLLIYKVFNRFSGVPDRFSGSGSGTDFTLKISRVEAEDVGVYYCFQDSFVPYTFGQGTKLEIKR
notes: Humanized B-E29 variant; human IgG1 (G1m3) / kappa (Km3), produced in CHO cells; also called huVH12/huVL1
